Sequences and labels used below:
B1: A-015 (scFv format) (scFv, V domains shown)
VH: not shown
VL: QPVLTQSPSASASLGASVKLTCTLSSGHTNYAIAWRQQQPGKAPRYLMLLNSDGSHTRGGGIPDRFSGSSSGAERYLTISSLQSEDEADYYCMIWHNNAWVFGGGTKLAVL
notes: scFv
B2: A-011 (scFv format) (scFv, V domains shown)
VH: QVQLVESGGGVVQPGRSLRLSCAASGFTFSSYAMHWVRQAPGKGLEWVAVISYDGSNKYYADSVKGRFTISRDNSKNTLYLQMNSLRAEDTAVYYCAEGGALNYYGMDVWGQGTTVTVSS
VL: SSELTQDPGVSVALGQTVRITCQGDSLRHFYATWYQQKPGQAPILVIYGKNNRPSGIPDRFSGSSSEDTASLTITGAQAEDEADYYCQSRDPRNNHLIFGGGTKLIVL
notes: scFv
B3: A-016 (scFv format) (scFv, V domains shown)
VH: QVQLQESGAEVKKPGASVKVSCKASGYTFTGYYMHWVRQAPGQGLEWMGGIIPIFGTANYAQKFQGRVTITADESTSTAYMELSSLRSEDTAVYYCAGAGMELTRSGAYYYYGMDVWGQGTTVTVSS
VL: QSALTQPASVSGSPGQSITISCTGTSSDIGGYTFVSWYQQHPGKAPKVMIHDVNNRPSGISNRFSGSKSGNTASLTISGLQAEDEADYYCSSVTSTNTYVFGTGTKVTVL
notes: scFv
B4: A-023 (scFv format) (scFv, V domains shown)
VH: QVQLVQSGAEVKKPGSSVKVSCKASGGTFSSYAISWVRQAPGQGLEWMGGIIPIFGTANYAQKFQGRVTITADESTSTAYMELSSLRSEDTAVYYCARPKYSSGWFYYYGMDVWGQGTTVTVSS
VL: QSVLTQPPSVSAAPGQKVTISCSGSSSNIGNNYVSWYQQLPGTAPKLLIYDNNKRPSGIPDRFSGSKSGTSATLGITGLQTGDEADYYCGTWDSSLSVVFGGGTKLTVL
notes: scFv
B5: A-025 (scFv format) (scFv, V domains shown)
VH: QVQLVQSGAEVKKPGSSVKVSCKASGGTFSSYAISWVRQAPGQGLEWMGGIIPIFGTANYAQKFQGRVTITADESTSTAYMELTSLRSEDTAVYYCARGGWLRQNWFDPWGQGTLVTVSS
VL: SSELTQDPAVSVALGQTVRITCQGDSLRSYYASWYQQKPGQAPVLVIYGKNNRPSGIPDRFSGSSSGNTASLTITGAQAEDEADYYCNSRDSSGNHPRVFGGGTKLTVL
notes: scFv
B6: A-022 (scFv format) (scFv, V domains shown)
VH: EVQLLESGPGLVKPSQTLSLTCTVSGGSISSGGYYWSWIRQHPGKGLEWIGYIYYSGSTYYNPSLKSRVTISVDTSKNQFSLKLSSVTAADTAVYYCARASRSTDYYFDYWGQGTLVTVSS
VL: QPGLTQPPSMSYGLGQTATLTCTGNRNNIGDQGAAWLQQHQGHPPKLLSYRNNNGPSGISERLSASRSGNTASLTISGLQPEDEADYYCSAWDSSLRAWVFGGGTKLTVL
notes: scFv
B7: A-010 (scFv format) (scFv, V domains shown)
VH: QVQLVQSGAEVKKPGASVKVSCKASGYTFTSYGISWVRQAPGQGLEWMGWISAYNGNTNYAQKLQGRVTMTTDTSTSTAYMELRSLRSDDTAVYYCARVPAWSGQFDYWGQGTLVTVSS
VL: QSALTQPASVSGSPGQSITISCTGSSSDVGGYNYVSWYQQYPGKAPKLMIYDVRSRPSGVSNRFSGSKSGNTASLTISGLQAEDEADYYCTSYTSSNTLVIFGGGTKVTVL
notes: scFv
B8: A-024 (scFv format) (scFv, V domains shown)
VH: QMQLVQSGAEVKKPGSSVKVSCKASGGTFSSYAISWVRQAPGQGLEWMGWISAYNGNTNYAQKLQGRVTMTTDTSTSTAYMELRSLRSDDTAVYYCASLGSYGYTGAFDIWGQGTMATVSS
VL: QSALTQPASVSGSPGQSITISCTGTSSDVGGYNYVSWYQQHPGKAPKLMIYEVSNRPSGVSNRFSGSKSGNTASLTISGLQAEDEADYYCSSYTSSSTLVVFGGGTKLTVL

The target in the experiment is T1, Streptavidin (UniProt P22629 37-163, limits assumed).
T1 construct: also called negative antigen; irrelevant antigen
T1 sequence (P22629 37-163 limits assumed): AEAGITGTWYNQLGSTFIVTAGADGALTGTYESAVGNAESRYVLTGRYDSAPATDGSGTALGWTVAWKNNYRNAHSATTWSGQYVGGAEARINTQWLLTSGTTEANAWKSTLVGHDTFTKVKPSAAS
The experiment in a line: ELISA, scFv. (In an ELISA, binding on a coated surface is turned into a signal by an enzyme label.)
B1: the binding result is “no binding (tested: <0.025 or <0.05 RFU)”.

In the case of B2, the binding result was “no binding (tested: <0.025 or <0.05 RFU)”. B3: the binding result is reported as “no binding (tested: <0.025 or <0.05 RFU)”. Then B4, with “no binding (tested: <0.025 or <0.05 RFU)”; and B5, with “no binding (tested: <0.025 or <0.05 RFU)”; and B6, with “no binding (tested: <0.025 or <0.05 RFU)”.

Consider B7, for which the binding result is listed as “no binding (tested: <0.025 or <0.05 RFU)”. The result for B8 reads “no binding (tested: <0.025 or <0.05 RFU)”.

Values taken from patent US20240010720A1 (IOMX THERAPEUTICS, published 2024).
